Reference: PMC9585320 (Frontiers in Molecular Biosciences, 2022)

B1: MazE6 antitoxin, full length, purified (natural protein)
chain: MKTAISLPDETFDRVSRRASELGMSRSEFFTKAAQRYLHELDAQLLTGQIDRALESIHGTDEAEALAVANAYRVLETMDDEW

What was measured:
[1] = molecular target: MazF6 library; test: flow cytometry on cells
[2] = molecular target: T1, MazF9 toxin, (His)6MazF(FLAG)3 (Mycobacterium tuberculosis, UniProt P71650 1-118); test: MST
T1 chain: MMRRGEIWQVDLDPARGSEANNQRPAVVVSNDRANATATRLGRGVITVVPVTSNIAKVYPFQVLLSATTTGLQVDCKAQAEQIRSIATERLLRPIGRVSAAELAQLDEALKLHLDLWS

Binder	Kd [1] [nM]	Kd [2] [nM]
B1	0.13	–
RLAERDAEILATNTSATGDLDTLAGHCARTALDID [C-terminal MazE3 peptide (residues 72-106)]	–	173
LEDDYANAWQEWSAAGDTDAWEQTVGDGVGDAPR [C-terminal MazE9 peptide (residues 43-76)]	–	5.2
